US20230348852A1, “METHODS AND COMPOSITIONS FOR OCULAR CELL THERAPY” (NOVARTIS AG, priority 2020, published 2023)

Assays:
B2M = assay: sgRNA screening for B2M knockout in LSCs (nucleofection, FACS); format: cell-based, human; details: Cas9 protein SEQ ID NO: 106, LSCs at passage 3, FACS after around 3 days
[1] = test system: beta-2-microglobulin gene; assay: CRISPR/Cas9-mediated deletion of B2M in LSCs (nucleofection, FACS); format: cell-based, human; details: nucleofection with Cas9 protein SEQ ID NO: 107, LSCs at passage 0, FACS
Experimental: LSCs at passage 0 were trypsinized with TryLE®Express Enzym (ThermoFisher, Cat #12605010) for 15 min in 5%CO2 at 37° C. After scraping the cells, the reaction was stopped by using cell culture medium containing 10% Serum and transferred to a falcon tube. After counting cells using Vi-cell 200′000 cells were prepared per reaction by transferring 200′000 cells in single tubes and centrifuged at 1000 rpm for 5 min.
The supernatant was aspirated using manually pipetting to avoid cell loss and the cells were resuspended in the Stem cell nucleofector solution II (Lonza, Cat #VPH-5022). Resuspend cells in nucleofector solution immediately before adding the Cas9 protein:sgRNA mixture. A stock of 100 µM (3.23 µg/µl) was prepared resuspending 5.1 nanomoles of single-guideRNA (sgRNA) in 51 µl 10 mM Tris buffer pH7.4. […]
In order to prevent cells sticking to the wall, collection tubes were filled with FACS buffer for 30 minutes before the sort and aspirated before adding the collection medium. […] FACS data were analyzed using BD FACSDiva software and FlowJo software.

[2] = test system: genomic DNA purified from male human peripheral blood mononuclear cells; assay: Biochemical assay for potential off-target genomic sites cleaved by Cas9 and B2M guides; details: number of potential off-target sites, guide concentration 64 nM
Experimental: A biochemical method (See, e.g., Cameron et al., Nature Methods. 6, 600-606; 2017) was used to determine potential off-target genomic sites cleaved by Cas9 and selected B2M guides. Guides showing B2M indel activity were tested for potential off-target genomic cleavage sites with this assay. […] The number of potential off-target sites detected using a guide concentration of 64 nM in the biochemical assay are shown in Table 10. As a result of this analysis, several gRNAs were selected for analysis of potential off-target activity in limbal stem cells.

B1: 1-CR004366: gRNA targeting human B2M; targeting domain SEQ ID NO: 108; sgRNA SEQ ID NO: 120; from Dharmacon (nucleic acid)
guide: GAGUAGCGCGAGCACAGCUAGUUUUAGAGCUAGAAAUAGCAAGUUAAAAUAAGGCUAGUCCGUUAUCAACUUGAAAAAGUGGCACCGAGUCGGUGCUUUU
modifications: listed as RNA, chemistry not given here
notes: gRNA targeting human B2M; from Dharmacon
- B2M knockout efficiency in LSCs after nucleofection (B2M): 55%
- LSCs not expressing B2M and HLA I (HLA A, B and C) on cell surface [1]: about 70%
- off-target Site_ Count [2]: 69
